According to the supplement of paper PMC10567573:

B1: TEKT4 (parent)
chain: YARYHQAFADRDQSERQRHESQQL

Variants of: B1
Experiment: protein stability index of a GFP-peptide fusion (GPS, HEK-293T) (PSI 1-6); higher = more stable
Settings: c terminus: a fixed tail appended
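Note: lentivirally expressed fusions sorted by FACS into six bins by GFP to DsRed ratio, PSI derived from sequencing read proportions per bin multiplied by bin number.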

Going from HARYHQAFADRDQSERQRHESQQL [Y1H] to TARYHQAFADRDQSERQRHESQQL [Y1T], the protein stability index rises from 4.54 to 4.62.

Compared with PARYHQAFADRDQSERQRHESQQL [Y1P], QARYHQAFADRDQSERQRHESQQL [Y1Q] is lower in protein stability index: 5.02 for the first, 4.76 for the second.

Compared with YARAHQAFADRDQSERQRHESQQL [Y4A], YARHHQAFADRDQSERQRHESQQL [Y4H] is lower in protein stability index: 3.28 for the first, 2.36 for the second.

Going from YARMHQAFADRDQSERQRHESQQL [Y4M] to YARNHQAFADRDQSERQRHESQQL [Y4N], the protein stability index falls from 3.21 to 2.99.

First: YAREHQAFADRDQSERQRHESQQL [Y4E]
Second: YARIHQAFADRDQSERQRHESQQL [Y4I]
The protein stability index of the first is higher: 4.1 for the first, 3.32 for the second.

Compared with YARFHQAFADRDQSERQRHESQQL [Y4F], YARKHQAFADRDQSERQRHESQQL [Y4K] is higher in protein stability index: 2.12 for the first, 3.78 for the second.

Going from YARYHQAFADRDQSERRRHESQQL [Q17R] to YARYHQAFADRDQSERWRHESQQL [Q17W], the protein stability index rises from 1.94 to 2.22.

First: YARYHQAFADRDQSERYRHESQQL [Q17Y]
Second: YARYHQAFADRDQSERNRHESQQL [Q17N]
The protein stability index of the first is higher: 2.72 for the first, 1.68 for the second.

Going from YARYHQAFADRDQSERLRHESQQL [Q17L] to YARYHQAFADRDQSERFRHESQQL [Q17F], the protein stability index rises from 2.32 to 2.56.

First: YARYHQAFADRDQSERKRHESQQL [Q17K]
Second: YARYHQFFADRDQSERQRHESQQL [A7F]
The protein stability index of the first is lower: 2.13 for the first, 2.99 for the second.

Compared with YARYHQDFADRDQSERQRHESQQL [A7D], YARYHQKFADRDQSERQRHESQQL [A7K] is lower in protein stability index: 3.7 for the first, 3.25 for the second.

First: YARYHQQFADRDQSERQRHESQQL [A7Q]
Second: YARYHQHFADRDQSERQRHESQQL [A7H]
The protein stability index of the first is higher: 3.03 for the first, 2.2 for the second.

Going from YARYHQAFADRDMSERQRHESQQL [Q13M] to YARYHQAFADRDFSERQRHESQQL [Q13F], the protein stability index rises from 1.64 to 1.83.

Compared with YARYHQAFADRDYSERQRHESQQL [Q13Y], YARYHQAFADRDPSERQRHESQQL [Q13P] is higher in protein stability index: 1.85 for the first, 2.36 for the second.

Going from YARYHQAFADRDGSERQRHESQQL [Q13G] to YARYHQAFADRDCSERQRHESQQL [Q13C], the protein stability index rises from 2.08 to 2.13.

Going from YARYHQAFADRDSSERQRHESQQL [Q13S] to YARYHQAFADRDVSERQRHESQQL [Q13V], the protein stability index falls from 2.49 to 1.99.

Going from YARYHQAFADRDQSRRQRHESQQL [E15R] to YARYHQAFADRDQSDRQRHESQQL [E15D], the protein stability index rises from 1.78 to 2.1.

Going from YARYHQAFADRDQSPRQRHESQQL [E15P] to YARYHQAFADRDQSYRQRHESQQL [E15Y], the protein stability index falls from 1.8 to 1.09.

Going from YARYHQAFADRDQSCRQRHESQQL [E15C] to YARYHQAFADRDQSTRQRHESQQL [E15T], the protein stability index falls from 2.36 to 2.07.

First: YARYHQAFADRDQSERQRHESQQD [L24D]
Second: YARYHQAFADRDQSERQRHESQQV [L24V]
The protein stability index of the first is higher: 2.14 for the first, 1.57 for the second.

Compared with YARYHQAFADRDQSERQRHESQQS [L24S], YARYHQAFADRDQSERQRHESQQC [L24C] is lower in protein stability index: 2.27 for the first, 1.67 for the second.

Going from YARYHQAFADRDQSERQRHESQQQ [L24Q] to YARYHQAFADRDQSERQRHESQQI [L24I], the protein stability index falls from 2.57 to 2.03.

Going from YARYHQAFADRDQSERQRHESQQP [L24P] to YARYHQAFADRDQSERQRHESQQE [L24E], the protein stability index rises from 1.64 to 2.24.

First: YANYHQAFADRDQSERQRHESQQL [R3N]
Second: YAYYHQAFADRDQSERQRHESQQL [R3Y]
The protein stability index of the first is lower: 2.79 for the first, 2.88 for the second.

Compared with YAMYHQAFADRDQSERQRHESQQL [R3M], YAPYHQAFADRDQSERQRHESQQL [R3P] is lower in protein stability index: 2.6 for the first, 1.6 for the second.

Compared with YAWYHQAFADRDQSERQRHESQQL [R3W], YACYHQAFADRDQSERQRHESQQL [R3C] is higher in protein stability index: 2.2 for the first, 2.84 for the second.

Going from YARYHQAFADRDQSERQRHMSQQL [E20M] to YARYHQAFADRDQSERQRHASQQL [E20A], the protein stability index rises from 1.74 to 2.51.

Going from YARYHQAFADRDQSERQRHNSQQL [E20N] to YARYHQAFADRDQSERQRHDSQQL [E20D], the protein stability index rises from 2.18 to 2.36.

Compared with YARYHQAFADRDQSERQRHHSQQL [E20H], YARYHQAFADRDQSERQRHGSQQL [E20G] is lower in protein stability index: 2.22 for the first, 2.19 for the second.

First: YARYHQAFADRDQSERQRHKSQQL [E20K]
Second: YARYHQAFADRDQSERQRHPSQQL [E20P]
The protein stability index of the first is lower: 2.06 for the first, 2.23 for the second.

First: YARYHQAFADRDQSERQRHEQQQL [S21Q]
Second: YARYHQAFADRDQSERQRHEYQQL [S21Y]
The protein stability index of the first is higher: 1.59 for the first, 1.29 for the second.

Compared with YARYHQAFADRDQSERQRHEMQQL [S21M], YARYHQAFADRDQSERQRHECQQL [S21C] is higher in protein stability index: 1.65 for the first, 2.77 for the second.

Going from YARYHQAFADRDQSERQRHEKQQL [S21K] to YARYHQAFADRDQSERQRHEVQQL [S21V], the protein stability index rises from 1.46 to 2.16.

Going from YARYHQAFADRDQSERQRHETQQL [S21T] to YARYHQAFADRTQSERQRHESQQL [D12T], the protein stability index falls from 3.06 to 2.12.

Going from YARYHQAFADRIQSERQRHESQQL [D12I] to YARYHQAFADRAQSERQRHESQQL [D12A], the protein stability index falls from 2.58 to 1.43.

Compared with YARYHQAFADRSQSERQRHESQQL [D12S], YARYHQAFADRLQSERQRHESQQL [D12L] is higher in protein stability index: 1.67 for the first, 1.98 for the second.

Compared with YARYHQAFADRPQSERQRHESQQL [D12P], YARYHQAFADRCQSERQRHESQQL [D12C] is higher in protein stability index: 1.57 for the first, 2.17 for the second.

Compared with YARYHQAFADFDQSERQRHESQQL [R11F], YARYHQAFADADQSERQRHESQQL [R11A] is higher in protein stability index: 1.99 for the first, 2.4 for the second.

First: YARYHQAFADGDQSERQRHESQQL [R11G]
Second: YARYHQAFADEDQSERQRHESQQL [R11E]
The protein stability index of the first is lower: 2.82 for the first, 3.29 for the second.

First: YARYHQAFADDDQSERQRHESQQL [R11D]
Second: YARYHQAFADPDQSERQRHESQQL [R11P]
The protein stability index of the first is higher: 3.59 for the first, 3.03 for the second.

Going from YARYHQAFADLDQSERQRHESQQL [R11L] to YARYHQAFADYDQSERQRHESQQL [R11Y], the protein stability index falls from 1.98 to 1.64.

First: YARYHQAFADHDQSERQRHESQQL [R11H]
Second: YARYHQAFADCDQSERQRHESQQL [R11C]
The protein stability index of the first is higher: 2.32 for the first, 2.14 for the second.

Going from YARYHQAFADNDQSERQRHESQQL [R11N] to YARYHQAFADQDQSERQRHESQQL [R11Q], the protein stability index rises from 2.83 to 3.07.

Going from YARYHQAFADRDQSERQRTESQQL [H19T] to YARYHQAFADRDQSERQRDESQQL [H19D], the protein stability index rises from 1.97 to 2.25.

Compared with YARYHQAFADRDQSERQREESQQL [H19E], YARYHQAFADRDQSERQRMESQQL [H19M] is higher in protein stability index: 2.19 for the first, 2.35 for the second.

Going from YARYHQAFADRDQSERQRYESQQL [H19Y] to YARYHQAFADRDQSERQRRESQQL [H19R], the protein stability index rises from 1.61 to 2.05.

Compared with YARYHQAFADRDQSERQRSESQQL [H19S], YARYHQAFADRDQSERQRPESQQL [H19P] is higher in protein stability index: 2.25 for the first, 2.51 for the second.
